Here are results for 27 molecules from patent publication US20070254831A1 (published 2007).

One may read the Kd as the equilibrium constant for the complex coming apart. By IC50 is commonly meant the midpoint of a concentration-inhibition curve. High values mean weaker potency in that assay, low ones greater potency in that assay.

Where two headings read alike, the source gives them in different places. Bridge positions count the residues as written; N and C are the ends. Square brackets hold non-standard residues; d marks the D form. Ends that are not written are not given here. Pen = CC(C)(S)[C@H](N)C(=O)O

The target of assay [1] is T1, soluble human FcRn (human, UniProt P55899 24-297; P61769 21-119, biotinylated (Sulfo-NHS-LC-Biotin) in the ELISA; amine-coupled to CM5 chip in SPR).
T1 construct: also called shFcRn; biotinylated shFcRn
Nature of the assay: SPR, pH 6. (SPR reads the build-up and loss of mass on a sensor chip optically.)
Method: (§1) The following steps were performed to cross-link soluble human or cynomolgus FcRn to the dextran surface of a CM5 sensor chip (Biacore AB, Uppsala, Sweden) by an amine coupling reaction involving 1-ethyl-(3-dimethylaminopropyl)-carbodiimide hydrochloride (EDC) (Biacore AB, Uppsala, Sweden) and N-hydroxysuccinimide (NHS) (Biacore AB, Uppsala, Sweden) as recommended by Biacore (BIAapplications Handbook, version AB, section 4.2, Biacore AB, Uppsala, Sweden). […] Residual sites on the FcRn flow cell were blocked with 1 M ethanolamine hydrochloride pH 8.5 (Biacore AB, Uppsala, Sweden). A control flow cell was blocked with ethanolamine for reference subtraction. For analysis of the monomeric peptides, FcRn was coated to a final density of 4000-5000 response units (RU). For analysis of the peptide dimers, FcRn was coated to a density of 2000-2500 RU. All SPR measurements were performed using a BIACORE 3000 Instrument (Biacore AB Uppsala, Sweden). For measurements done at either pH 6 or pH 7.4, experiments were performed in 50 mM phosphate, 100 mM sodium chloride, 0.01% surfactant P20 (Biacore AB, Uppsala, Sweden).
(§2) Ten, 2-fold dilutions of the peptide were injected over the FcRn-CM5 chip at a rate of 20 μl/min for 2 min. The peptide was dissociated from the chip for 2.5 minutes with buffer. Any remaining peptide was removed from the chip with a 30 second injection of HBS-P buffer (Biacore AB, Uppsala, Sweden) at a rate of 30 μl/min. Sensorgrams were generated and analyzed using BiaEval software version 3.1 (Biacore AB, Uppsala, Sweden). The equilibrium RU observed for each injection was plotted against concentration. The equilibrium KD values were derived by analysis of the plots using the steady state affinity model included in the BiaEval software.

The target of assay [2] is T1, soluble human FcRn. Nature of the assay: ELISA, competitor human IgG. For orientation: An ELISA detects its analyte on a solid surface through an enzyme-linked reagent.
Method: (§3) The wells were coated with 100 μl/well of 1 μg/ml biotinylated-shFcRn in Buffer A. The plate was sealed and incubated at 37° C. for 2 hours. Afterwards, the plate washed with 200 μl/well of Buffer B (Buffer B: 100 mM MES pH 6, 150 mM NaCl, 0.5% BSA IgG-free (Jackson ImmunoResearch, West Grove, Pa.), 0.05% Tween-20). […] To allow for mixing, the plate was rocked for 2 minutes, sealed and incubated at 37° C. for 2 hours. […] The plate was covered, incubated for 30 minutes at room temperature and washed 4 times with 200 μl/well of ice-cold buffer B. SureBlue TMB substrate solution (100 μl/well, KPL, Gaithersburg, Md.) was added and the plate was allowed to incubate at room temperature until color developed, which took 5 to 10 minutes. Once color developed, 100 μl/well of TMB stop solution (KPL, Gaithersburg, Md.) was added and the absorbance was measured at 450 nm. The data was plotted as absorbance vs. peptide concentration to derive the inhibitory concentration 50% (IC₅₀) values.
Assay [3] concerns the target T1, soluble human FcRn. Nature of the assay: SPR, pH 6. This is another data set of the same source.
Method: as §1, §2
The target in assay [4] is T1, soluble human FcRn. Nature of the assay: ELISA, competitor human IgG. The source holds these as a separate data set.
Method: as §3
The target of assay [5] is T1, soluble human FcRn. Nature of the assay: SPR, pH 7.4.
Method: as §1, §2
Assay [6] addresses T1, soluble human FcRn. Nature of the assay: ELISA, competitor human IgG. The source holds these as a separate data set.
Method: as §3
For assay [7], the target named is T1, soluble human FcRn. The experiment in a line: SPR, pH 6. The source holds these as a separate data set.
Method: as §1, §2
The target in assay [8] is T1, soluble human FcRn. The experiment in a line: SPR, pH 7.4. This is another data set of the same source.
Method: as §1, §2
The target in assay [9] is T1, soluble human FcRn. The experiment in a line: ELISA, competitor human IgG. The source holds these as a separate data set.
Method: as §3
Assay [10] has as its target T1, soluble human FcRn. Nature of the assay: SPR, pH 6. This is another data set of the same source.
Method: as §1, §2
In assay [11] the target is T1, soluble human FcRn. The experiment in a line: SPR, pH 6. This is another data set of the same source.
For assay [12], the target named is T1, soluble human FcRn. Nature of the assay: SPR, pH 6. The source holds these as a separate data set.
Method: as §1, §2
For assay [13], the target named is T1, soluble human FcRn. The experiment in a line: ELISA, competitor human IgG. The source holds these as a separate data set.
Method: as §3

T1 sequence (P55899 24-297 limits assumed, chain 1 of 2): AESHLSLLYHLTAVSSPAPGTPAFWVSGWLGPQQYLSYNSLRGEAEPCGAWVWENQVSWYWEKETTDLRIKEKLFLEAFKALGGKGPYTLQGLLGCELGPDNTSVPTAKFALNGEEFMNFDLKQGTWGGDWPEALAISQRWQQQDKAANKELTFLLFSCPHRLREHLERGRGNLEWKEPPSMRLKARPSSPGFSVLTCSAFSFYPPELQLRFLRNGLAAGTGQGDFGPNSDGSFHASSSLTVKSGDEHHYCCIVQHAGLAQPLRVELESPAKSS
T1 sequence (P61769 21-119 limits assumed, chain 2 of 2): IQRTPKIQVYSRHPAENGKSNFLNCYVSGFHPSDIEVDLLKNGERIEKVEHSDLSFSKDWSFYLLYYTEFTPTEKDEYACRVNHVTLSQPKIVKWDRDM

B1: Peptide No. 211 (peptide)
peptide: FVTGHFG[dP]WYPA-NH2
modifications: N-terminus assumed
SMILES: CC(C)[C@H](NC(=O)[C@@H](N)Cc1ccccc1)C(=O)N[C@H](C(=O)NCC(=O)N[C@@H](Cc1c[nH]cn1)C(=O)N[C@@H](Cc1ccccc1)C(=O)NCC(=O)N1CCC[C@@H]1C(=O)N[C@@H](Cc1c[nH]c2ccccc12)C(=O)N[C@@H](Cc1ccc(O)cc1)C(=O)N1CCC[C@H]1C(=O)N[C@@H](C)C(N)=O)[C@@H](C)O
Turning to B1, binding in assay [1] was put at a Kd of 8 µM. The molecule further came in with an IC50 in assay [2] of 100 µM.

In assay [3], FCTGHFGGLYPCNGP-NH2 (disulfide 2-12 (inferred)) [SEQ ID NO:22] registered a Kd of 11 µM. The IC50 in assay [4] stood at 67 µM.

Consider QRFSTGHFGGLYPSNGP-NH2 [Peptide No. 71], for which the dissociation constant (Kd) in assay [1] came to 230 µM. Also, the IC50 in [2] was over 125 µM.

In turn, TGHFGGLYP-NH2 [SEQ ID NO:20] displayed an IC50 in assay [4] of over 250 µM.

B2: Peptide No. 169 (peptide)
peptide: QRFVTGHFG[dP]LYPINGP-NH2
modifications: N-terminus assumed
SMILES: CC[C@H](C)[C@H](NC(=O)[C@@H]1CCCN1C(=O)[C@H](Cc1ccc(O)cc1)NC(=O)[C@H](CC(C)C)NC(=O)[C@H]1CCCN1C(=O)CNC(=O)[C@H](Cc1ccccc1)NC(=O)[C@H](Cc1c[nH]cn1)NC(=O)CNC(=O)[C@@H](NC(=O)[C@@H](NC(=O)[C@H](Cc1ccccc1)NC(=O)[C@H](CCCNC(=N)N)NC(=O)[C@@H](N)CCC(N)=O)C(C)C)[C@@H](C)O)C(=O)N[C@@H](CC(N)=O)C(=O)NCC(=O)N1CCC[C@H]1C(N)=O
Regarding B2, in [1], the Kd was found to be 15 µM. Besides, the IC50 in assay [2] is 72 µM.

Consider QRFCTGHFGGLYPCN-NH2 (disulfide 4-14 (inferred)) [SEQ ID NO:24], for which the dissociation constant (Kd) in assay [5] came to 73 µM; in assay [3] it was 6.1 µM.

For QAFCTGHFGGLYPCNGP-NH2 (disulfide 4-14 (inferred)) [SEQ ID NO:25], in assay [6], the IC50 was 23 µM. This molecule had a Kd in assay [7] of 7.7 µM.

Molecule QRFCAGHFGGLYPCNGP-NH2 (disulfide 4-14 (inferred)) [SEQ ID NO:27] had an IC50 in assay [6] of 30 µM. In [7], binding was put at a Kd of 4.9 µM.

For QRFCTGHFGGLYPCAGP-NH2 (disulfide 4-14 (inferred)) [SEQ ID NO:36], the IC50 in assay [6] was determined as 30 µM. In addition, in assay [7], the Kd was determined as 8 µM.

In turn, QRACTGHFGGLYPCNGP-NH2 (disulfide 4-14 (inferred)) [SEQ ID NO:26] yielded an IC50 in assay [6] of 95 µM. The Kd in [7] was 28 µM.

Consider CTGHFGGLYPC-NH2 (disulfide 1-11 (inferred)) [SEQ ID NO:19], for which the Kd in [5] stood at 320 µM; in assay [3], 20 µM. Moreover, the IC50 in [4] worked out at 110 µM.

B3: Peptide No. 41 (peptide)
peptide: QRF[Pen]TGHFG[dR]LYPCNGP-NH2
modifications: disulfide 4-14; N-terminus assumed
SMILES: CC(C)C[C@@H]1NC(=O)[C@@H](CCCNC(=N)N)NC(=O)CNC(=O)[C@H](Cc2ccccc2)NC(=O)[C@H](Cc2c[nH]cn2)NC(=O)CNC(=O)[C@H]([C@@H](C)O)NC(=O)[C@@H](NC(=O)[C@H](Cc2ccccc2)NC(=O)[C@H](CCCNC(=N)N)NC(=O)[C@@H](N)CCC(N)=O)C(C)(C)SSC[C@@H](C(=O)N[C@@H](CC(N)=O)C(=O)NCC(=O)N2CCC[C@H]2C(N)=O)NC(=O)[C@@H]2CCCN2C(=O)[C@H](Cc2ccc(O)cc2)NC1=O
As to B3, the Kd in assay [8] came to 8.8 µM; in assay [10], 0.83 µM. Further, the 50% inhibitory concentration (IC50) in assay [9] is 8.1 µM.

As to QRFXTGHFGHLYPCNGP (Pen at 4; D-His at 10; disulfide; C-terminal amide) [Peptide No. 42], the dissociation constant Kd stood at 20 µM in assay [8] and 2 µM in assay [10].

QRFXTGHFDGLYPCNGP (Pen at 4; D-Asp at 9; disulfide; C-terminal amide) [Peptide No. 47]: the dissociation constant (Kd) is 4.9 µM in assay [8] and 0.58 µM in assay [10].

For QRFXTGHFGFLYPCNGP (Pen at 4; D-Phe at 10; disulfide; C-terminal amide) [Peptide No. 44], the values for the Kd in assay [8] and in assay [10] were 100 µM and 1.7 µM, respectively.

In [5], QRFCTGHFGGLYPC-NH2 (disulfide 4-14 (inferred)) [SEQ ID NO:18] registered a dissociation constant (Kd) of 26 µM.

Turning to QRFXTGHFGXLYPCNGP (Pen at 4; Aib (aminoisobutyric acid) at 10; disulfide; C-terminal amide) [Peptide No. 46], the Kd in assay [8] was 5.3 µM; in assay [10], 0.48 µM. The same molecule showed an IC50 in assay [9] of 2.4 µM.

As for CTGHFGGLYPCNGP-NH2 (disulfide 1-11 (inferred)) [SEQ ID NO:17], the Kd in assay [3] was found to be 34 µM. The IC50 in assay [4] is 239 µM.

Regarding RFXTGHFGGLYPC (Pen at 3; Sar at 9; NMeLeu at 10; disulfide; C-terminal amide) [Peptide No. 235], the Kd in [11] and in assay [12] was 0.031 µM in each case.

In [12], RFXTGHFFGLYPC (Pen at 3; D-Phe at 8; Sar at 9; NMeLeu at 10; disulfide; C-terminal amide) [Peptide No. 217] displayed a Kd of 1.4 µM.

In assay [13], RFXTGHFTGLYPC (Pen at 3; D-Thr at 8; Sar at 9; NMeLeu at 10; disulfide; C-terminal amide) [Peptide No. 240] gave an IC50 of 71 µM. Further, the Kd in [12] worked out at 4.8 µM.

Consider RFXTGHFSGLYPC (Pen at 3; D-Ser at 8; Sar at 9; NMeLeu at 10; disulfide; C-terminal amide) [Peptide No. 241], for which the IC50 in assay [13] was 23 µM. In assay [12], this molecule yielded a Kd of 1.1 µM.

The molecule RFXTGHFLGLYPC (Pen at 3; D-Leu at 8; Sar at 9; NMeLeu at 10; disulfide; C-terminal amide) [Peptide No. 219] yielded an IC50 in assay [13] of 4 µM. Further, in assay [12], the Kd worked out at 0.47 µM.

Molecule RFXTGHFEGLYPC (Pen at 3; D-Glu at 8; Sar at 9; NMeLeu at 10; disulfide; C-terminal amide) [Peptide No. 244] yielded an IC50 in assay [13] of 6.4 µM. Also, the dissociation constant (Kd) in assay [12] came to 0.58 µM.

With RFXTGHFNGLYPC (Pen at 3; D-Asn at 8; Sar at 9; NMeLeu at 10; disulfide; C-terminal amide) [Peptide No. 243], the IC50 in assay [13] came out at 29 µM. This molecule also had a Kd in [12] of 2.1 µM.

As for RFXTGHFVGLYPC (Pen at 3; D-Val at 8; Sar at 9; NMeLeu at 10; disulfide; C-terminal amide) [Peptide No. 218], in [13], the IC50 was over 50 µM.

B4: Peptide No. 246 (peptide)
peptide: RFVTGHFG[dP]WYPA-NH2
modifications: N-terminus assumed
SMILES: CC(C)[C@H](NC(=O)[C@H](Cc1ccccc1)NC(=O)[C@@H](N)CCCNC(=N)N)C(=O)N[C@H](C(=O)NCC(=O)N[C@@H](Cc1c[nH]cn1)C(=O)N[C@@H](Cc1ccccc1)C(=O)NCC(=O)N1CCC[C@@H]1C(=O)N[C@@H](Cc1c[nH]c2ccccc12)C(=O)N[C@@H](Cc1ccc(O)cc1)C(=O)N1CCC[C@H]1C(=O)N[C@@H](C)C(N)=O)[C@@H](C)O
For B4, binding in [1] was characterised by a dissociation constant (Kd) of 3.6 µM. In assay [2], this molecule returned an IC50 of 60 µM.
